Measurements from article PMC4889030 (Molecular cell, 2016).
Read-outs that look alike come from different tables or passages of the source. Where no end group is shown, it is not given here.

Columns and labels:
Test in all cases: pull-down
[1] = biological target: T1, full length ^FlagCRBN expressed in CRBN-KO 293FT cells (human, UniProt Q96SW2 1-442)
[2] = biological target: T1, full length ^FlagCRBN expressed in …; remark: listed apart in the source
^FlagCRBN H357Y = ^FlagCRBN H357Y (human, UniProt Q96SW2 1-442, H357Y)
Chain of ^FlagCRBN H357Y (Q96SW2 whole entry H357Y): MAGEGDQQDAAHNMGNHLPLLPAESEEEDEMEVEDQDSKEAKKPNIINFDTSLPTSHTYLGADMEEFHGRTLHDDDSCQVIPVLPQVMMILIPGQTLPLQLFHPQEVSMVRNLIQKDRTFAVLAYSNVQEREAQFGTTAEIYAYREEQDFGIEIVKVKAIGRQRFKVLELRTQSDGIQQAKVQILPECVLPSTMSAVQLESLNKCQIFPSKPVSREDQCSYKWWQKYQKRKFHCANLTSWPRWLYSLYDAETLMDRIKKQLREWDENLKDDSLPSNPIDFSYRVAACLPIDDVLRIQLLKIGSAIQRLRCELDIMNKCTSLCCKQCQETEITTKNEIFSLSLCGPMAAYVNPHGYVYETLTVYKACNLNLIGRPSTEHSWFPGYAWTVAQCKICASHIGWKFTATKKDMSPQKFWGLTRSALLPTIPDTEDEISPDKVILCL

T1 sequence (Q96SW2 whole entry): as the sequence (Q96SW2 whole entry H357Y) above, with Y357H counted along it

| Binder | binding result [1] | binding result [2] | binding result (^FlagCRBN H357Y) |
| --- | --- | --- | --- |
| ASSHLNK(Ac)GIK(Ac)QVYMSLPQ (peptide, UniProt P15104 5-22, looked up, also: biotinylated, place not given here) [biotinylated synthetic GS peptide (amino acids 5-22 of GS), di-acetylated on K11 and K14] | binds | – | – |
| ASSHLNK(Ac)GIKQVYMSLPQ (peptide, UniProt P15104 5-22, looked up, also: biotinylated, place not given here) [biotinylated synthetic GS peptide (amino acids 5-22 of GS), mono-acetylated on K11] | – | binds | binds |
| ASSHLNKGIK(Ac)QVYMSLPQ (peptide, UniProt P15104 5-22, looked up, also: biotinylated, place not given here) [biotinylated synthetic GS peptide (amino acids 5-22 of GS), mono-acetylated on K14] | – | binds | – |
